Data: publication PMC8568920, “Serum apolipoprotein A-I potentiates the therapeutic efficacy of lysocin E against Staphylococcus aureus” (Nature Communications, 2021)

System: S. aureus
Assay: Lysocin E antimicrobial activity-enhancing activity (1 unit decreases the MIC of lysocin E to 1 µg ml−1)
Format: cell-based, Staphylococcus aureus
Settings: ApoA species
Procedure: Calf serum (10 ml) was added to 15 ml EtOH (60% v/v) and the mixture was centrifuged for 15 min. The collected supernatant was evaporated and suspended in 8 ml Milli-Q water (fraction [fr.] II). Fr. II with formic acid (0.1%) was applied to 10 ml of ODS resin (Waters Corporation, Milford, MA, USA). After washing with 25% EtOH and then 50% EtOH, the resin was eluted with 75% EtOH containing 0.1% formic acid. The eluted sample was evaporated and dissolved in 0.8 ml buffer A (10 mM phosphate buffer [pH 7.1], 6 M urea; Fr. III). Fr. III was applied to the Superose 12 10/300 GL gel filtration column (GE Healthcare) and eluted with the AKTApurifier system (GE Healthcare). The elution was performed in buffer A at a flow rate of 0.5 ml min^−1 and 60 fractions (0.5 ml per fr.) were collected in 2-ml tubes. All fractions, except for Fr. I, were dialysed in 10 mM phosphate buffer (pH 7.1) before assessment of their activities. Protein concentrations were measured using Coomassie Plus^TM protein assay reagent (Thermo Fisher) with bovine serum albumin as the standard. Amino acid sequence analysis was performed by in-gel digestion and mass spectrometric analysis. One unit was defined as the activity that decreases the MIC of lysocin E to 1 µg ml^−1.

B1: rmApoA-I: recombinant mouse ApoA-I (protein, UniProt Q00623 25-264, looked up)
Apolipoprotein A-I: DEPQSQWDKVKDFANVYVDAVKDSGRDYVSQFESSSLGQQLNLNLLENWDTLGSTVSQLQERLGPLTRDFWDNLEKETDWVRQEMNKDLEEVKQKVQPYLDEFQKKWKEDVELYRQKVAPLGAELQESARQKLQELQGRLSPVAEEFRDRMRTHVDSLRTQLAPHSEQMRESLAQRLAELKSNPTLNEYHTRAKTHLKTLGEKARPALEDLRHSLMPMLETLKTQVQSVIDKASETLTAQ
Specific activity for lysocin E antimicrobial enhancing activity: 6400 unit mg-1 protein
